Literature values, collected in article PMC11996608.
pKd: −log10 of the molar value.

Target: core RNA polymerase (Escherichia coli) (UniProt P0A7Z4)

RapA, sequence (P60240 2-968): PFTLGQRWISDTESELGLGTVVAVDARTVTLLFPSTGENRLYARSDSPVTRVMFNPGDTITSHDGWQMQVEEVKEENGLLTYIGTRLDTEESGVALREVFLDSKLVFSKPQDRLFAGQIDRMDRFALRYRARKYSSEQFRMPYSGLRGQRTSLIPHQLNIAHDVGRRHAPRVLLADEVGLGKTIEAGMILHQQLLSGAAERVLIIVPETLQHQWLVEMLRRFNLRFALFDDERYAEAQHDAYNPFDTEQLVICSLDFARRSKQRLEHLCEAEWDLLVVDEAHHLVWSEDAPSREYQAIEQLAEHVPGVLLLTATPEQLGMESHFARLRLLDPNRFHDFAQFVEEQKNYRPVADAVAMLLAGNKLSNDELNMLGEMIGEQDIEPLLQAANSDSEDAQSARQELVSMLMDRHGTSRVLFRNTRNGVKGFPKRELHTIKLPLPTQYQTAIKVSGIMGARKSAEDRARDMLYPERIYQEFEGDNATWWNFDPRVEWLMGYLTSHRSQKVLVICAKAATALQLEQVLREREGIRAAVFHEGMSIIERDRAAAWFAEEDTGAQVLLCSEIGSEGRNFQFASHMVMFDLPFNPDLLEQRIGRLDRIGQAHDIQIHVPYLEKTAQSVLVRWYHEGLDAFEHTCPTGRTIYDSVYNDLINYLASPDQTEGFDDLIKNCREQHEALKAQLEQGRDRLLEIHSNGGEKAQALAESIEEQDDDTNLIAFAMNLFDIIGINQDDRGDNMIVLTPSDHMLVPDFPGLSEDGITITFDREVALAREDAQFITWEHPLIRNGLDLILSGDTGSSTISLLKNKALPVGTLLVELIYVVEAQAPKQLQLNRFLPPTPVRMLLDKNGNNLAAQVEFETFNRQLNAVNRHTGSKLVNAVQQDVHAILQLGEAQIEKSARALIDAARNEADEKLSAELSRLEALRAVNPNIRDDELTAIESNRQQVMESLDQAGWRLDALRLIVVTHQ

pKd: 8.12
Substance: RapA (from UniProt P60240)
